Measurements taken from article PMC9728385.

Target: TtCST WT (Ctc1-Stn1-Ten1, co-expressed with p50) (Tetrahymena, UniProt A0PGB2;Q6JXI5;D2CVN7;D2CVN8 1-622;1-373;1-164;1-422)
Assay: EMSA

Sequence of TtCST WT (Ctc1-Stn1-Ten1, co-expressed with p50) (A0PGB2 whole entry, chain 1 of 4): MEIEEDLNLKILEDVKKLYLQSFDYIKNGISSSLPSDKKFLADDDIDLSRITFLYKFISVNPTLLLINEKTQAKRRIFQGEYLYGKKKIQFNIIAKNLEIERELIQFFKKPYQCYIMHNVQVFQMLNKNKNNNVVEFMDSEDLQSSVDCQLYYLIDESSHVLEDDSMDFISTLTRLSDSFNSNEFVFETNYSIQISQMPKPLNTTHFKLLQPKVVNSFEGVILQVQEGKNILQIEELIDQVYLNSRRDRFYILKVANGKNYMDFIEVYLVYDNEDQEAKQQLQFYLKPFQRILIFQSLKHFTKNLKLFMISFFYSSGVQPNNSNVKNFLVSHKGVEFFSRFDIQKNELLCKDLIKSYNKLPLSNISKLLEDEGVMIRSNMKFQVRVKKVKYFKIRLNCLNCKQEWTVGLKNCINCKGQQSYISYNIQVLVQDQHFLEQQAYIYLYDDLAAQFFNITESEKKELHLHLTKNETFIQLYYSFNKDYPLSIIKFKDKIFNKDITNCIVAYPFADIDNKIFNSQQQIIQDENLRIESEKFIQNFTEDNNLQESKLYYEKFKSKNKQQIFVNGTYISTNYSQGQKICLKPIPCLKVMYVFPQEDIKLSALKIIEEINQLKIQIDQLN
Sequence of TtCST WT (Ctc1-Stn1-Ten1, co-expressed with p50) (Q6JXI5 whole entry, chain 2 of 4): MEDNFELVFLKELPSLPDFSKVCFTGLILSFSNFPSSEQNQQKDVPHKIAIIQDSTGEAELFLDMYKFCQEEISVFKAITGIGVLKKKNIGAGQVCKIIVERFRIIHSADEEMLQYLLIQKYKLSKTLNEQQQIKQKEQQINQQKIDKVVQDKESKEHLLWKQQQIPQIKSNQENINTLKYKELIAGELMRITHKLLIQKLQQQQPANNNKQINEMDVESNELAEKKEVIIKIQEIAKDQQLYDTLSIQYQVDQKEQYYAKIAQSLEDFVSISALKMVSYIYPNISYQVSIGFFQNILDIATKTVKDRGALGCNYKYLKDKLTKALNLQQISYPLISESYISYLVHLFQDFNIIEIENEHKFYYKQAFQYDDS
Sequence of TtCST WT (Ctc1-Stn1-Ten1, co-expressed with p50) (D2CVN7 whole entry, chain 3 of 4): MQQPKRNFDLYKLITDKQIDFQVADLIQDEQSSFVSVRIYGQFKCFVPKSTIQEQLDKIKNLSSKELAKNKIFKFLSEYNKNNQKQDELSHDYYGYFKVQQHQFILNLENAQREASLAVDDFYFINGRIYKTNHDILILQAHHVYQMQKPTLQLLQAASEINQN
Sequence of TtCST WT (Ctc1-Stn1-Ten1, co-expressed with p50) (D2CVN8 whole entry, chain 4 of 4): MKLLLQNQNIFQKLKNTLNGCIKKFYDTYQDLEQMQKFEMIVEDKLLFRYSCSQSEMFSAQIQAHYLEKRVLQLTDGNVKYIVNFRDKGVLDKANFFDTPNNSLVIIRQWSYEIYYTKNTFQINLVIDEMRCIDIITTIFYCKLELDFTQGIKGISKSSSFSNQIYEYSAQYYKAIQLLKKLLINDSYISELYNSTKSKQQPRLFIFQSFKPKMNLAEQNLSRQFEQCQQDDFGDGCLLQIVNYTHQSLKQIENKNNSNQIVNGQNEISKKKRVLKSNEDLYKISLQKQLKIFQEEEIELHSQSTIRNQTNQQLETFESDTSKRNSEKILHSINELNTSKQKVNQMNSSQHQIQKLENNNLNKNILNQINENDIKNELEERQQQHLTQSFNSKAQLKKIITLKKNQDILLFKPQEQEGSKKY

Question: Which Kd does the source give for GTTGGGGTTGGGGTTGGGGTTGGGGTTGGG (ssDNA) [d(GTTGGG)5] here?
Answer: Its Kd is 180 nM.
